For one substance, stoichiometry N results are on record in publication PMC5082683.

What is called stoichiometry N is a count of units in the complex or per binding partner.

The assay addresses Andes virus Gc, wild type (Andes virus strain CHI-7913). Nature of the assay: sucrose gradient sedimentation.

The substance “Andes virus Gc, wild type (natural protein)” gave a stoichiometry N of 3.
